# Experimental data: patent US9340577B2, “HLA binding motifs and peptides and their uses” (priority 1992, dated 2016)
# No end group written: not given here.
# Target: A*3301 (Homo sapiens, UniProt P04439, A270S/D185E/E176V/E277Q/E87N/F33T/G231S/H175R/I121M/I218V/I322F/K168Q/K210R/L300P/L318F/M331R/P217A/Q86R/Q94H/R138Q/T323A/T345S/T97I/V358M/Y195H)
# Experiment: biochemical
# Format: binding
row,Substance,IC50
1,AACWRSRRK [Peptide 88.0260],> 20 µM
2,AVDLSFFLK [Peptide 73.0184],> 20 µM
3,KAGPGGYPRK [Peptide 73.0334],> 20 µM
4,KISEYRHYNK [Peptide 88.0110],> 20 µM
5,KTLGISYGRK [Peptide 66.0073],> 20 µM
6,KTLGISYGRKK [Peptide 66.0090],> 20 µM

# Target: HLA-A*0201 (HLA-A2.1) (Homo sapiens, UniProt P04439, D140Y/D185E/D98H/E176V/E277Q/G131W/G231S/I119V/I121R/I166T/I218V/L300P/L318F/N151K/N90K/P208A/P217A/Q86G/Q94H/R138H/R169H/T345S)
# Experiment: biochemical
# Format: binding
Substance,A2.1 Binding,binding to HLA-A2.1 (column 3; no allele head shown for these rows),A2.1,A*0201,IC50
11546 (SLLPAIVEL) [Peptide 11546],0.19,–,–,–,–
AALREEEEGV,–,0,–,–,–
AATSSSSPLV,–,0,–,–,–
AISRKMVELV,–,–,0,–,–
ALEAQQEA,–,–,0,–,–
ALEAQQEAL,–,–,<0.0003,–,–
ALEAQQEALGL,–,0.0001,–,–,–
ALNKMFBQV [Peptide 1323.04],–,–,–,0.0260,–
AMBRWGLLV [Peptide 1334.08],–,–,–,0.1400,–
ATSSSSPLV,–,0.0007,–,–,–
ATSSSSPLVL,–,0,–,–,–
ATVGIJIGV [Peptide 1345.02],–,–,–,0.1595,–
AVITKKVA,–,0,–,–,–
AVITKKVAD,–,–,<0.0002,–,–
AVITKKVADL,–,–,0,–,–
AVITKKVADLV,–,0,–,–,–
BLLAKTBPV [Peptide 1329.15],–,–,–,0.1100,–
BLTIHYNYV [Peptide 1323.08],–,–,–,0.0430,–
BQLAKTBPV [Peptide 1329.14],–,–,–,0.0490,–
CILESLFRAV,–,–,0.0003,–,–
CILESLFRAVI,–,0.0030,–,–,–
CKPEEALEA,–,–,<0.0002,–,–
CLGLSYDGLL,–,–,0,–,–
CLLAKTCPV [Peptide 1326.01],–,–,–,0.0400,–
CQLAKTCPV [Peptide 1324.07],–,–,–,0.0240,–
DLESEFQAA,–,0,–,–,–

Substance,A2.1 Binding,binding to HLA-A2.1 (column 3; no allele head shown for these rows),A2.1,A*0201,IC50
DLESEFQAAI,–,0,–,–,–
DLESEFQAAISRKMV,–,0,–,–,–
DLQQSLRVL,–,–,0,–,–
DLVGFLLL,–,–,0,–,–
DLVQEKYL,–,–,0,–,–
DLVQEKYLEYRQV,–,0,–,–,–
DPTGHSYVL,–,–,<0.0002,–,–
EADPTGHSYV,–,0,–,–,–
EALEAQQEA,–,0,–,–,–
EALGLVCVQA,–,0.0005,–,–,–
EAQQEALGLV,–,0,–,–,–
EIFGKASESL,–,–,0,–,–
EIWEELSV,–,0,–,–,–
EIWEELSVM,–,0,–,–,–
ELSVMEVYD,–,–,<0.0002,–,–
EVDPIGHLYI,–,<0.0002,–,–,–
EVVPISHLYI,–,<0.0002,–,–,–
FLIIVLVM,–,–,0,–,–
FLIIVLVMI,–,–,0.0005,–,–
FPTTINFTR,–,–,<0.0002,–,–
GIDVKEADPT,–,0,–,–,–
GIELMEVDPI,–,<0.0002,–,–,–
GIEVVEVVPI,–,<0.0002,–,–,–
GKASESLQL,–,–,<0.0002,–,–
GLLGDNQI,–,–,0,–,–
GLSYDGLL,–,–,0.0001,–,–

Substance,A2.1 Binding,binding to HLA-A2.1 (column 3; no allele head shown for these rows),A2.1,A*0201,IC50
GLSYDGLLV,–,0.0047,–,–,–
GLYDGMEHV [Peptide 1586.08],–,–,–,–,0.155 µM
GLYDGREHTV [Peptide 1586.06],–,–,–,–,0.144 µM
GMCCPDLSPV [Peptide 41.0157],–,–,–,0.0950,–
GREHSAYGE,–,–,<0.0002,–,–
GVQGPSLKPA,–,–,0.0001,–,–
GVQGPSLKPAM,–,0,–,–,–
HAPEEEIWE,–,–,<0.0002,–,–
IIAIEGDCA,–,0,–,–,–
IIAREGDCA,–,0,–,–,–
IIVLVMIA,–,0.0002,–,–,–
IIVLVMIAM,–,0.0007,–,–,–
IJIGVLVGV [Peptide 1345.01],–,–,–,0.0570,–
ILESLFRAV,–,–,0.0004,–,–
ILESLFRAVI,–,–,0.0002,–,–
IMPKAGLLI,–,0.0064,–,–,–
IMPKAGLLII,–,0.0015,–,–,–
IMPKTGFL,–,–,0.0001,–,–
ITKKVADLV,–,0,–,–,–
IVLVMIAM,–,0.0001,–,–,–
KAEMLGSVV,–,0,–,–,–
KAGLLIIVLA,–,<0.0002,–,–,–
KASESLQLV,–,0.0009,–,–,–
KASEYLQLV,–,0.011,–,–,–
